In US11473073B2, “Aminopeptidases for protein hydrolyzates” (DUPONT NUTRITION BIOSCIENCES APS, priority 2015, dated 2022):

What was measured:
Format in all cases: biochemical
[1] = tested on: Na-caseinate; experiment: Degree of hydrolysis of pre-hydrolysed Na-caseinate; details: Casein, 50° C., 20 hr
Method: (§1) The degree of hydrolyses (DH) describes the relative amount of cleaved peptides bounds compared to an acid hydrolyses of the same amount of protein conducted e.g. in 6 M HCL at ˜120° C. for ˜24 h. The higher the DH can therefore be applied to assess the efficiency of amino acid liberation of a general PepN such as a PepN 1 or a PepN 2 type. The cell free culture broth was concentrated (10 kDa cut-off, Sartorius, Göttingen, Germany) and desalted applying a disposal desalting column (PD10, GE, Munchen, Germany) as described by the manufacturer. As substrates were pre-hydrolysed 10% (w/w) Na-caseinate (DMK, Germany), whey protein isolate (WPI; Arla, Viby, Denmark), soy protein isolate (SPI; SUPRO® 760, DuPont, Brabrand, Denmark) and gluten suspensions were applied. The pre-hydrolysis was conducted with 1% (w/wprotein) of FOODPRO® Alkaline Protease, 1% (w/wprotein) FOODPRO® PNL for the Na-Caseinate, the WPI as well as the SPI suspension. All pre-hydrolyses were conducted at 55° C. for 18 h followed by an inactivation step at 95° C. for 20 min. Each applied PepN 2 has been inactivated at 95 C for 15 min as a control of the elimination of any carryover of amino acids from the culture broth to the final hydrolyses as well as for the sufficient inactivation of the applied endopeptidases. The hydrolyses were conducted in a 96-well micro titer plate format and consisted of 150 μL of the pre-hydrolyzed protein suspension combined with 50 μL of a PepN 2 stock solution as indicated in Table 1 below. The hydrolyses were conducted at 50° C. for 20 hr, subsequently, the hydrolysis were stopped by the addition of 20 μL 2 M TCA (Trichloroacetic acid, Sigma-Aldrich, Schnelldorf, Germany). The efficiency of the amino acid liberation of the PepN 2 types from Neosartorya fischeri and Aspergillus clavatus can be seen in Table 1 (B) and (A). […] For the gluten hydrolyses, an increased DH was noticed in the protein range from 0.02-0.3 mg/mL PepN 2.

[2] = tested on: whey protein isolate (WPI); experiment: Degree of hydrolysis of pre-hydrolysed whey protein isolate; details: 50° C., 20 hr
Method: as §1

[3] = tested on: soy protein isolate (SPI); experiment: Degree of hydrolysis of pre-hydrolysed soy protein isolate; details: 50° C., 20 hr
Method: as §1

[4] = tested on: gluten; experiment: Degree of hydrolysis of pre-hydrolysed gluten; details: 50° C., 20 hr
Method: as §1

[5] = tested on: peptide WHWLQLKPGQPMY (SEQ ID NO:26); experiment: Hydrolysis of proline containing peptide, LC-MS; details: peptide 1 mg/mL, aminopeptidase 1 ug/mL, CPB-Buffer, 55° C.; FIG. 5-7
Method: The peptide […] (SEQ ID NO:26) was hydrolysed with TRI03 and TRI035. The peptide (1 mg/mL) was incubated with 1 ug/mL of the aminopeptidase in 20 mM CPB-Buffer (20 mM Citric acid, 20 mM Phosphate. 20 mM Boric acid) at 55° C. Aliquots (50 μL) were stopped with 50 rel 5% TFA at the indicated time points and subjected to LC-MS analysis.
Capillary LC-MS/MS analyses were performed using an Agilent 1100 LC system (Agilent Technologies) interfaced to a LTQ Orbitrap Classic hybrid mass spectrometer (Thermo Scientific, Bremen, Germany). Samples were loaded onto a 15 cm Phenomenix Jupiter 4μ Proteo 90A, C4 analytical column. Separation was performed at a flow rate of 16 μL/min using a 10 min gradient of 0-40% Solvent B H2O/CH3CN/HCOOH (50/950/0.65 v/v/v) into the IONMAX® ion source (Thermo Scientific, San Jose). The LTQ Orbitrap Classic instrument was operated in a data-dependent MS/MS mode. The peptide masses were measured by the Orbitrap (MS scans were obtained with a resolution of 60 000 at m/z 400), and up to 2 of the most intense peptide m/z were selected and subjected to fragmentation using CID in the linear ion trap (LTQ). Dynamic exclusion was enabled with a list size of 500 masses, duration of 40 s, and an exclusion mass width of ±10 ppm relative to masses on the list.
The RAW files were accessed with the program Skyline 2.6.0.7176 (MacLean, B., et al., “Skyline: an open source document editor for creating and analyzing targeted proteomics experiments”, Bioinformatics, 2010, 26(7): p. 966-8) which uses the MS1 intensities to build chromatograms (Schilling, B., et al., “Platform-independent and label-free quantitation of proteomic data using MS1 extracted ion chromatograms in skyline: application to protein acetylation and phosphorylation”, Mol Cell Proteomics, 2012. 11(5): p. 202-14). The precursor isotopic import filter was set to a count of three, (M, M+1, and M+2) at a resolution of 60,000 and the most intense charge state was used. Peptide sequences of the substrate as well as cleavage products were typed into Skyline and intensities were calculated in each sample. […]

[6] = Product inhibition of H-Ala-pNA hydrolysis by amino acid inhibitor mix; details: pH 9.0, 30° C.
Method: Sigma cat # D2650). […] […] and proline were dissolved in DMSO. All other amino acids were dissolved in buffer. […] The reaction was started by adding 20 μL substrate. Only one substrate concentration was used per plate.

[7] = inactivated enzyme at the highest conc.

B1: TRI035: fungal aminopeptidase type-2 (pepN_2), NCBI XP_001273779 from Aspergillus clavatus NRRL 1 (protein)
chain: MQTFGAFLVSFLAASGLAAANAPGGPGGHGRKLPVNPKTFPNEIRLKDLLHGSQKLEDFAYAYPERNRVFGGQAHLDTVNYLYRELKKTGYYDVYKQPQVHQWTRADQSLTLGGDSIQASTMTYSPSVNVTAPLSLVSKLGCAEGDYSADVKGKIALVSRGECSFAQKSVLSAKAGAVATIVYNNVDGSLAGTLGGATSELGPYSPIIGITLAAGQDLVARLQAAPTEVSLWIDSKVENRTTYNVIAQTKGGDPNNVVALGGHTDSVENGPGINDDGSGVISNLVVAKALTRYSVKNAVRFCFWTAEEFGLLGSNYYVDNLSPAELAKIRLYLNFDMIASPNYALMIYDGDGSAFNLTGPPGSAQIESLFENYYKSIKQGFVPTAFDGRSDYEGFILKGIPAGGVFTGAESLKTEEQARLFGGQAGVALDANYHAKGDNMTNLNHKAFLINSRATAFAVATYANNLSSIPPRNATVVKRESMKWTKREEPHTHGADTGCFASRVKE
modifications: Synthetic peptide with leader sequence
Degree of hydrolysis ([1]; PepN 2 stock 0.02 mg/mL): 16%
Degree of hydrolysis ([1]; PepN 2 stock 0.03 mg/mL): 19%
Degree of hydrolysis ([1]; PepN 2 stock 0.04 mg/mL): 19%
Degree of hydrolysis ([1]; PepN 2 stock 0.05 mg/mL): 20%
Degree of hydrolysis ([1]; PepN 2 stock 0.1 mg/mL): 21%
Degree of hydrolysis ([1]; PepN 2 stock 0.15 mg/mL): 23%
Degree of hydrolysis ([1]; PepN 2 stock 0.2 mg/mL): 24%
Degree of hydrolysis ([1]; PepN 2 stock 0.25 mg/mL): 24%
Degree of hydrolysis ([1]; PepN 2 stock 0.3 mg/mL): 24%
Degree of hydrolysis ([1]; PepN 2 stock 0.35 mg/mL): 27%
Degree of hydrolysis [1, 7]: 8%
Degree of hydrolysis ([2]; PepN 2 stock 0.02 mg/mL): 19%
Degree of hydrolysis ([2]; PepN 2 stock 0.03 mg/mL): 20%
Degree of hydrolysis ([2]; PepN 2 stock 0.04 mg/mL): 21%
Degree of hydrolysis ([2]; PepN 2 stock 0.05 mg/mL): 22%
Degree of hydrolysis ([2]; PepN 2 stock 0.1 mg/mL): 23%
Degree of hydrolysis ([2]; PepN 2 stock 0.15 mg/mL): 27%
Degree of hydrolysis ([2]; PepN 2 stock 0.2 mg/mL): 25%
Degree of hydrolysis ([2]; PepN 2 stock 0.25 mg/mL): 28%
Degree of hydrolysis ([2]; PepN 2 stock 0.3 mg/mL): 29%
Degree of hydrolysis ([2]; PepN 2 stock 0.35 mg/mL): 29%
Degree of hydrolysis [2, 7]: 8%
Degree of hydrolysis ([3]; PepN 2 stock 0.02 mg/mL): 11%
Degree of hydrolysis ([3]; PepN 2 stock 0.03 mg/mL): 12%
Degree of hydrolysis ([3]; PepN 2 stock 0.04 mg/mL): 13%
Degree of hydrolysis ([3]; PepN 2 stock 0.05 mg/mL): 14%
Degree of hydrolysis ([3]; PepN 2 stock 0.1 mg/mL): 16%
Degree of hydrolysis ([3]; PepN 2 stock 0.15 mg/mL): 15%
Degree of hydrolysis ([3]; PepN 2 stock 0.2 mg/mL): 17%
Degree of hydrolysis ([3]; PepN 2 stock 0.25 mg/mL): 21%
Degree of hydrolysis ([3]; PepN 2 stock 0.3 mg/mL): 21%
Degree of hydrolysis ([3]; PepN 2 stock 0.35 mg/mL): 21%
Degree of hydrolysis [3, 7]: 6%
Degree of hydrolysis ([4]; PepN 2 stock 0.02 mg/mL): 12%
Degree of hydrolysis ([4]; PepN 2 stock 0.03 mg/mL): 14%
Degree of hydrolysis ([4]; PepN 2 stock 0.04 mg/mL): 15%
Degree of hydrolysis ([4]; PepN 2 stock 0.05 mg/mL): 15%
Degree of hydrolysis ([4]; PepN 2 stock 0.1 mg/mL): 17%
Degree of hydrolysis ([4]; PepN 2 stock 0.15 mg/mL): 18%
Degree of hydrolysis ([4]; PepN 2 stock 0.2 mg/mL): 17%
Degree of hydrolysis ([4]; PepN 2 stock 0.25 mg/mL): 19%
Degree of hydrolysis ([4]; PepN 2 stock 0.3 mg/mL): 19%
Degree of hydrolysis ([4]; PepN 2 stock 0.35 mg/mL): 22%
Degree of hydrolysis [4, 7]: 4%
hydrolysis of WHWLQLKPGQPMY to KPGQPMY and further down to QPMY [5]: can hydrolyze
product inhibition compared to TRI063 from A. oryzae [6]: less inhibited by product

B2: TRI031: fungal aminopeptidase type-2 (pepN_2), NCBI XP_001258675 from Neosartorya fischeri NRRL 181, expressed in Trichoderma reesei (protein)
chain: MQTFGAFLVSFLAASGLAAANGPGWDWKPPVHPKVLPQMIHLWDLMHGAQKLEDFAYAYPERNRVFGGPAHEDTVNYLYRELKKTGYYDVYKQPQVHQWTRADQALTVDGKSYVATTMTYSPSVNVTAPLAVVNNLGCVESDYPADLKGKIALVSRGECPFATKSVLSAKAGAAAALVYNNIEGSMAGTLGGPTSELGPYAPIAGISLADGQALIQMIQAGTVTANLWIDSKVENRTTYNVIAQTKGGDPNNVVALGGHTDSVEAGPGINDDGSGIISNLVVAKALTRFSVKNAVRFCFWTAEEFGLLGSSYYVNSLNATEKAKIRLYLNFDMIASPNYALMIYDGDGSAFNLTGPAGSAQIERLFEDYYKSIRKPFVPTEFNGRSDYEAFILNGIPAGGIFTGAEAIKTEEQAKLFGGQAGVALDANYHAKGDNMTNLNREAFLINSKATAFAVATYANSLDSIPSRNMSTVVKRSQLEQAKKSTPHTHTGGTGCYKDRVEQ
modifications: Synthetic peptide with leader sequence
notes: fungal aminopeptidase type-2 (pepN_2), NCBI XP_001258675 from Neosartorya fischeri NRRL 181, expressed in Trichoderma reesei
Degree of hydrolysis ([1]; PepN 2 stock 0.02 mg/mL): 14%
Degree of hydrolysis ([1]; PepN 2 stock 0.03 mg/mL): 15%
Degree of hydrolysis ([1]; PepN 2 stock 0.04 mg/mL): 16%
Degree of hydrolysis ([1]; PepN 2 stock 0.05 mg/mL): 20%
Degree of hydrolysis ([1]; PepN 2 stock 0.1 mg/mL): 19%
Degree of hydrolysis ([1]; PepN 2 stock 0.15 mg/mL): 21%
Degree of hydrolysis ([1]; PepN 2 stock 0.2 mg/mL): 23%
Degree of hydrolysis ([1]; PepN 2 stock 0.25 mg/mL): 22%
Degree of hydrolysis ([1]; PepN 2 stock 0.3 mg/mL): 24%
Degree of hydrolysis ([1]; PepN 2 stock 0.35 mg/mL): 24%
Degree of hydrolysis [1, 7]: 8%
Degree of hydrolysis ([2]; PepN 2 stock 0.02 mg/mL): 17%
Degree of hydrolysis ([2]; PepN 2 stock 0.03 mg/mL): 19%
Degree of hydrolysis ([2]; PepN 2 stock 0.04 mg/mL): 19%
Degree of hydrolysis ([2]; PepN 2 stock 0.05 mg/mL): 21%
Degree of hydrolysis ([2]; PepN 2 stock 0.1 mg/mL): 23%
Degree of hydrolysis ([2]; PepN 2 stock 0.15 mg/mL): 28%
Degree of hydrolysis ([2]; PepN 2 stock 0.2 mg/mL): 24%
Degree of hydrolysis ([2]; PepN 2 stock 0.25 mg/mL): 26%
Degree of hydrolysis ([2]; PepN 2 stock 0.3 mg/mL): 27%
Degree of hydrolysis ([2]; PepN 2 stock 0.35 mg/mL): 29%
Degree of hydrolysis [2, 7]: 8%
Degree of hydrolysis ([3]; PepN 2 stock 0.02 mg/mL): 11%
Degree of hydrolysis ([3]; PepN 2 stock 0.03 mg/mL): 13%
Degree of hydrolysis ([3]; PepN 2 stock 0.04 mg/mL): 14%
Degree of hydrolysis ([3]; PepN 2 stock 0.05 mg/mL): 15%
Degree of hydrolysis ([3]; PepN 2 stock 0.1 mg/mL): 17%
Degree of hydrolysis ([3]; PepN 2 stock 0.15 mg/mL): 18%
Degree of hydrolysis ([3]; PepN 2 stock 0.2 mg/mL): 19%
Degree of hydrolysis ([3]; PepN 2 stock 0.25 mg/mL): 19%
Degree of hydrolysis ([3]; PepN 2 stock 0.3 mg/mL): 19%
Degree of hydrolysis ([3]; PepN 2 stock 0.35 mg/mL): 22%
Degree of hydrolysis [3, 7]: 6%
Degree of hydrolysis ([4]; PepN 2 stock 0.02 mg/mL): 10%
Degree of hydrolysis ([4]; PepN 2 stock 0.03 mg/mL): 13%
Degree of hydrolysis ([4]; PepN 2 stock 0.04 mg/mL): 15%
Degree of hydrolysis ([4]; PepN 2 stock 0.05 mg/mL): 14%
Degree of hydrolysis ([4]; PepN 2 stock 0.1 mg/mL): 17%
Degree of hydrolysis ([4]; PepN 2 stock 0.15 mg/mL): 18%
Degree of hydrolysis ([4]; PepN 2 stock 0.2 mg/mL): 19%
Degree of hydrolysis ([4]; PepN 2 stock 0.25 mg/mL): 19%
Degree of hydrolysis ([4]; PepN 2 stock 0.3 mg/mL): 21%
Degree of hydrolysis ([4]; PepN 2 stock 0.35 mg/mL): 20%
Degree of hydrolysis [4, 7]: 4%
hydrolysis of WHWLQLKPGQPMY to KPGQPMY and further down to QPMY [5]: can hydrolyze
product inhibition compared to TRI063 from A. oryzae [6]: less inhibited by product
